# Test results taken from patent US20100104603A1 (published 2010).
# Ends that are not written are not given here.
# T1: Staphylococcal superantigen-like protein 5 (SSL5) of S. aureus strain NTCT 8325, recombinant (Staphylococcus aureus strain NTCT 8325, UniProt A0A0H3K6Z6 31-234)
# T1 sequence: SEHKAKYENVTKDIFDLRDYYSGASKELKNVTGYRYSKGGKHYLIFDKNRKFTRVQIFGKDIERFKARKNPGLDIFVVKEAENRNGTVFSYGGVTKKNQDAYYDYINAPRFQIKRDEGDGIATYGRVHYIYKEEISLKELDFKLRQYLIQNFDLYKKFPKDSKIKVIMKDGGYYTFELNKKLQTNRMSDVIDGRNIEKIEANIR
# T2: IL-8 (UniProt P10145 28-99)
# T2 construct: also called biotin-labeled IL-8
# T2 sequence: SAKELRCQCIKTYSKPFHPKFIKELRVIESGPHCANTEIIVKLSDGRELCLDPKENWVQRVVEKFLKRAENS
# B1: recombinant human PSGL-1-Fc construct (PSGL-1/Ig fusion protein) (Fc fusion)
# chain: QATEYEYLDYDFLPETEPPEMLRNSTDTTPLTGPGTPESTTVEPAAR
# modifications: ends and bridges not checked; also: fused to Ig Fc part
# notes: also called rPSGL/Ig; not shown: Ig/Fc part
# Legend:
# [1] = biological target: T1, Staphylococcal superantigen-like …
# IL-8 = biological target: T2, IL-8; experiment: ELISA: IL-8-coated wells, PSGL-1/Ig without SSL5
binder,measurement,setting,value
B1,Kd,[1],820 nM
same,binding result,IL-8,no binding (tested: 1 µg/ml)
